{"source": "paper PMC3317499", "about": "(2012)", "parents": {"B1": {"name": "Myc-Mal-TIR wild type (TIR domain of human MyD88 adaptor-like protein, residues 79-221, double-tagged with His6 and Myc) [human] / GST-TLR4-TIR (TIR domain of human TLR4, residues 670-839, GST fusion) [human] (parent complex)", "chain 1": "SSRWSKDYDVCVCHSEEDLVAAQDLVSYLEGSTASLRCFLQLRDATPGGAIVSELCQALSSSHCRVLLITPGFLQDPWCKYQMLQALTEAPGAEGCTIPLLSGLSRAAYPPELRFMYYVDGRGPDGGFRQVKEAVMRYLQTLS", "chain 2": "GENIYDAFVIYSSQDEDWVRNELVKNLEEGVPPFQLCLHYRDFIPGVAIAANIIHEGFHKSRKVIVVVSQHFIQSRWCIFEYEIAQTWQFLSSRAGIIFIVLQKVEKTLLRQQVELYRLLSRNTYLEWEDSVLGRHIFWRRLRKALLDGKSWNPEGTVGTGCNWQEATSI"}, "B2": {"name": "Myc-Mal-TIR wild type (TIR domain of human MyD88 adaptor-like protein, residues 79-221, double-tagged with His6 and Myc) [human] / GST-MyD88-TIR (TIR domain of human MyD88, residues 148-296, GST fusion) [human] (parent complex)", "chain 1": "B1 chain 1", "chain 2": "TTLDDPLGHMPERFDAFICYCPSDIQFVQEMIRQLEQTNYRLKLCVSDRDVLPGTCVWSIASELIEKRCRRMVVVVSDDYLQSKECDFQTKFALSLSPGAHQKRLIPIKYKAMKKEFPSILRFITVCDYTNPCTKSWFWTRLAKALSLP"}}}
{"variants_of": "B1", "assay": "GST pull-down, quantified Western blot; n = 3 separate experiments; parent: 1; read off a plot"}
{"variant": "chain 1 F39A", "ratio to parent": "~0.24"}
{"variant": "chain 1 E30A", "ratio to parent": "~0.39"}
{"variants_of": "B2", "assay": "GST pull-down, quantified Western blot; n = 3 separate experiments; parent: 1; read off a plot"}
{"variant": "chain 1 E30A", "ratio to parent": "~0.76"}
{"variant": "chain 1 F39A", "ratio to parent": "~0.42"}
